From patent US20130129725A1 (Amgen, published 2013)

T1: hu-FGFR1c-His (human, UniProt P11362 22-376)
T1 construct: also called human FGFR1c; not shown: His tag
T1 sequence: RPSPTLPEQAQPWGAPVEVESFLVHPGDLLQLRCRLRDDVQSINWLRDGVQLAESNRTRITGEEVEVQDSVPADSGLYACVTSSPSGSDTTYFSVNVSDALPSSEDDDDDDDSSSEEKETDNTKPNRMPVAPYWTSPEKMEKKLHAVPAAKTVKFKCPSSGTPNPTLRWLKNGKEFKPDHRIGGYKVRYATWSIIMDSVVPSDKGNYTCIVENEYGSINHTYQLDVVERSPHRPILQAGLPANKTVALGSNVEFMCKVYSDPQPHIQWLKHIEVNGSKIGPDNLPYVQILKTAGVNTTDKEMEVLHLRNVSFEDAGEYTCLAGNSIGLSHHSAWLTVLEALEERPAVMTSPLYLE

B1: 1A2-Rm26 (bispecific antibody, human IgG1, kappa, N297Q, V domains shown)
VH: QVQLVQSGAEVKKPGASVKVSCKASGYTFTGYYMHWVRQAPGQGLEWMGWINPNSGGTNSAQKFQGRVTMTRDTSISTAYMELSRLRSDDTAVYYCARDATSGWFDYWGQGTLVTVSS
VL: DIVMTQTPLSSPVTLGQPASISCRSSQSLVYSDGNTYLSWLQQRPGQPPRLLIYKISNRFSGVPDRFSGSGAGTDFTLKISRVEADDVGIYYCMQAIEFPWTFGQGTQVEIKR
notes: also called H1-Rm26
B2: 2G10-Rm26 (bispecific antibody, human IgG1, lambda, N297Q)
heavy: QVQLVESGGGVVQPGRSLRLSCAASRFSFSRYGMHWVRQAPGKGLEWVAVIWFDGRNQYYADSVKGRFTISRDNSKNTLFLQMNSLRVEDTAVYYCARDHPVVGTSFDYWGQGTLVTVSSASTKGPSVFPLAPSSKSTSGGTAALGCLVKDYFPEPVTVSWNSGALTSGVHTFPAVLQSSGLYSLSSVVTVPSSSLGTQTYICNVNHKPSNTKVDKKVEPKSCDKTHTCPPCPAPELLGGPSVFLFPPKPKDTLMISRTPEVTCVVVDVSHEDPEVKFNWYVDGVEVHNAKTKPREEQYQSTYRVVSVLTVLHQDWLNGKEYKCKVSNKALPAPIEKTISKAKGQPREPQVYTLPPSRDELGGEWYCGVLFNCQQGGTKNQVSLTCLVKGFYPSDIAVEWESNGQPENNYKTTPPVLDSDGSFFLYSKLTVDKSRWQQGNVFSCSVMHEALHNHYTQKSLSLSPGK
light: QSVLTQPPSVSAAPGQKVTVSCSGSSSNIGNNYVSWYQQLPGTAPKLLIYDNNKRPSGIPDRFSGSKSGTSATLGITGLQTGDEAEYYCGTWDSSLSVVAFGGGTKLTVLGQPKANPTVTLFPPSSEELQANKATLVCLISDFYPGAVTVAWKADGSPVKAGVETTKPSKQSNNKYAASSYLSLTPEQWKSHRSYSCQVTHEGSTVEKTVAPTECS
notes: also called H2-Rm26
B3: 2G10-Rm40 (bispecific antibody, human IgG1, lambda, N297Q)
heavy: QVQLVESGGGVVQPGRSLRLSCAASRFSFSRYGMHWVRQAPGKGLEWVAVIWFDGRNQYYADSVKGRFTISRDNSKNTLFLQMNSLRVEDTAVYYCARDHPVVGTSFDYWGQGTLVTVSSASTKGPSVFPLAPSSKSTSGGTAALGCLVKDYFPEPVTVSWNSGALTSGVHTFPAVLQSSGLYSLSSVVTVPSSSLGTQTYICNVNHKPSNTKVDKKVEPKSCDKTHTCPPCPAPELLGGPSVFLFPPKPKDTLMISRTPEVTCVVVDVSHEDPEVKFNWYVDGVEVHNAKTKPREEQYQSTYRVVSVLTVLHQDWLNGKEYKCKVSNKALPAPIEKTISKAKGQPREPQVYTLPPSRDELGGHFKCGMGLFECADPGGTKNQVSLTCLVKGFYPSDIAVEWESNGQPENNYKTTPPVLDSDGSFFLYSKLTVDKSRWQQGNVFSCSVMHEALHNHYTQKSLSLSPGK
light: B2 light
notes: also called H2-Rm40
B4: Rm26 (peptide)
peptide: EWYCGVLFNCQQ
B5: SR4 (peptide)
peptide: YQAWGYYV
B6: Rm40 (peptide)
peptide: HFKCGMGLFECADP

The binders below were run against T1, hu-FGFR1c-His (assay: ELISA (Example 10), antigen on plate, anti-hu-Fc-HRP detection (FIG. 13)).
Experimental: Biotin-hu-β-Klotho-His, biotin-mu-βKlotho-His, hu-FGFR1c-His, and mu-FGFR1c-Fc were expressed and purified. Anti-Fc-HRP was purchased from Thermo Fisher Scientific (Rockford, Ill.). Neutravidin 96 well plates (Thermo Fisher Scientific; Rockford, Ill.) were coated with 2 μg/ml biotin-hu-β-Klotho-His or biotin-mu-β-Klotho-His in PBS (Invitrogen; Carlsbad, Calif.). Maxisorp 96 well plates (Thermo Fisher Scientific; Rockford, Ill.) were coated with 2 μg/ml hu-FGFR1c-His or mu-FGFR1c-Fc in PBS. Plates were then incubated at 4° C. overnight. Plates were blocked in 2% milk-PBS at room temperature for 1 hour. Each well was then incubated 1 hour with samples diluted in 2% milk-PBS. Plates were washed 3 times with 300 μl PBS/0.1% Tween20 (Invitrogen; Carlsbad, Calif. and Sigma-Aldrich; St. Louis, Mo.). Anti-hu-Fc-HRP was diluted 1:10000 in 2% milk-PBS and added to each well. Plates were again washed 3 times with 300 μl PBS/0.1% Tween20. Lumiglo reagent (KPL; Gaithersburg, Md.) was added and luminescence was measured (Perkin Elmer; Waltham, Mass.).
B1: binds.
B2: binds.
B3: binds.

The binders below were run against T1, hu-FGFR1c-His (assay: ELISA (Example 10), antigen on plate (FIG. 13)).
B4: binds.
B5: binds.
B6: binds.
